Test results from patent US20190309079A1 (Regeneron, published 2019).

T1: full length human LEPR (amino acids 1-1165 of P48357, Isoform B) on cells (human, UniProt P48357 22-1165)
T1 sequence: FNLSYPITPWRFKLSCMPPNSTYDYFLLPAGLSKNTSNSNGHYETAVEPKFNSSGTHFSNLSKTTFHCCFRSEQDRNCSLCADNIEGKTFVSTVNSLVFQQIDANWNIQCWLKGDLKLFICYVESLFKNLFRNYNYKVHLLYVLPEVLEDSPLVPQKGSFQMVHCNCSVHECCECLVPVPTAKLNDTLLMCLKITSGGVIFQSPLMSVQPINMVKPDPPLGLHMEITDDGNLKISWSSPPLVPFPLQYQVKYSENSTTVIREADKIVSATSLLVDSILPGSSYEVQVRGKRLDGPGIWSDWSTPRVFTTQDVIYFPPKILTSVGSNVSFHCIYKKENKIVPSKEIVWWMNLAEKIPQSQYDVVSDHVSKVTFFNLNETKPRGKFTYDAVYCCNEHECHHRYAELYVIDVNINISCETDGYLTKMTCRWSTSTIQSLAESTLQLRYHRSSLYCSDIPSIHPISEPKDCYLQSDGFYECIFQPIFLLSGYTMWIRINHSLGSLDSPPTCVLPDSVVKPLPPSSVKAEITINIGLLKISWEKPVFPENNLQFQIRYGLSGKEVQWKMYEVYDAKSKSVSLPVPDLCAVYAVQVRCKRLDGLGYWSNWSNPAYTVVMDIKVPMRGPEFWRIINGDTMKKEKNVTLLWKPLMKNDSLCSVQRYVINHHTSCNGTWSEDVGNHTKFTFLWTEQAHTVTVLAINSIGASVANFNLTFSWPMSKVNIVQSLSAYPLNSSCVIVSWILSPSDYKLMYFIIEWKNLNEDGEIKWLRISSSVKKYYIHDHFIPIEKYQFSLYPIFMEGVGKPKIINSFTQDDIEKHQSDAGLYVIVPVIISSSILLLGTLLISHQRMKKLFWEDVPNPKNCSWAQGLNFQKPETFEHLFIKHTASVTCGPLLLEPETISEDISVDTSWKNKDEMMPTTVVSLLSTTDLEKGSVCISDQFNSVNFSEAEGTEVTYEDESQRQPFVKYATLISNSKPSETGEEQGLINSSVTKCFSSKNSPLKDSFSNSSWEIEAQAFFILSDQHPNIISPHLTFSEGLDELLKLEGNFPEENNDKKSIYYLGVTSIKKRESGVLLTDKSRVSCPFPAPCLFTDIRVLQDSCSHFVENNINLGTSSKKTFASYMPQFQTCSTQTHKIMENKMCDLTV

B1: H4H18438P2 (antibody, V domains shown)
VH: QVQLVESGGGVVQPGRSLRLSCAASGFSFNTYGMHWVRQAPGKGLEWVTIIWYDGSIKYYADSVKGRFTISRDNSKNTLYLQMNSLRAEDTAVYYCARGGYSGYLYFDYWGQGTLVTVSS
VL: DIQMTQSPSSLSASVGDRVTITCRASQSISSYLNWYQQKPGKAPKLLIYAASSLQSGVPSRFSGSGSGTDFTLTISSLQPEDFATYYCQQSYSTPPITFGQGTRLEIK
B2: H4H18446P2 (antibody, human IgG4, V domains shown)
VH: EVQLVESGGGLVQPGGSLRLSCAASGFTFSNYGMTWVRQAPGKGLEWVSAITGGGGSTYYSNSVKGRFTISRDNSKNTVYLRMNSVRAEDTAVYYCAKYKWNFVDDWGQGTTVTVSS
VL: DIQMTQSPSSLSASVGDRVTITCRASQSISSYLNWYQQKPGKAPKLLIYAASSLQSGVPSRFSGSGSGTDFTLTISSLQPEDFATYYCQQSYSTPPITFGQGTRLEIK
notes: human IgG4 Fc
B3: H4H18417P2 (antibody, V domains shown)
VH: QVQLVESGGGVVQPGRSLRLSCAASGFTFSTYGMHWVRQAPGKGLEWVSVISYDESNKYYADSVKGRFTISRDNSKNALYLQMNSLRNEDTAVYYCARDRPFGLVTGWFDPWGQGTLVTVSS
VL: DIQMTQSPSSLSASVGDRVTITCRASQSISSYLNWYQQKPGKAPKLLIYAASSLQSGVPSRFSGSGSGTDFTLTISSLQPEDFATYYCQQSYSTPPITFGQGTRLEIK
B4: H4H16650P2 (antibody, V domains shown)
VH: QVQLVESGGGVVQPGKSLRLSCVASGFTFSSDAMYWVRQAPGKGLEWVAVIYYDGNYQYYEDSVKGRFTISRDNSQNTLDLQMNSLRVDDTAVYFCARLNWDYWYLDLWGRGTLVTVSS
VL: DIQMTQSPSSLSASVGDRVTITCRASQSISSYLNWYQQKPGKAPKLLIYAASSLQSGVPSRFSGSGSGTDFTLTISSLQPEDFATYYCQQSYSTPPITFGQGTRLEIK
B5: H4H18449P2 (antibody, human IgG4, V domains shown)
VH: EVQLVESGGGLVQPGGSLRLSCVASGFTFNKYDMHWVRQTTGKGLEWVSGIDTDGDTYYPGSVKGRFTISRENAENSLYLQMNGLRVGDTAVYYCARWPWSGFYGAFDIWGQGTMVTVSS
VL: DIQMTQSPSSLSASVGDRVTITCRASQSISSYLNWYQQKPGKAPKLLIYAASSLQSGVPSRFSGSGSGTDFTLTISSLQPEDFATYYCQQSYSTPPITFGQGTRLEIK
notes: human IgG4 Fc
B6: H4H16679P2 (antibody, V domains shown)
VH: QVQLVESGGGVVQPGRSLRLSCTASGFTFSSYAMYWVRQAPGKGLEWVSVIYYDGSYKYYADSVKGRFTISRDNSKNTLYLQMDSLRAEDTAVYYCASYNWNYWYFDFWGRGTLVTVSS
VL: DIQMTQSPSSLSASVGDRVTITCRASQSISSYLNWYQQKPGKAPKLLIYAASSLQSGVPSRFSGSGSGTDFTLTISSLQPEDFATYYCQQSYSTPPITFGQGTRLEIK
B7: H4H17321P2 (antibody, V domains shown)
VH: QVQLVESGGGVVQPGRSLRLSCEASGFSSSDNAMYWVRQAPGKGLEWVSVIYHDGSYKYYEDSVKGRFTIARDNSKNTLYLQMNSLRAEDTAVYYCARYNWNHWYFDVWGRGTLVTVSS
VL: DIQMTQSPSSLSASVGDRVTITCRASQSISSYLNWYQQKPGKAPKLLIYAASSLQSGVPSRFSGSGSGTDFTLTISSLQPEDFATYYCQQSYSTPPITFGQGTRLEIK
B8: H4H17319P2 (antibody, V domains shown)
VH: QVQLVESGGSVVQPGRSLRLSCAASGFTFSTYAMYWVRQTPGKGLEWVAVLYSDGSNKYYIDSVKGRFTISRDTSTNTLYLQMSSLRADDSALYYCARLNWDYWYFDLWGRGTLVTVSS
VL: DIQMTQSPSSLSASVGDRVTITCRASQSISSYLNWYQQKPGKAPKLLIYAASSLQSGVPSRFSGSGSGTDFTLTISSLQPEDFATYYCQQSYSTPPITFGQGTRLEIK
notes: also called REGN4461
B9: H4H18445P2 (antibody, human IgG4, V domains shown)
VH: QVQLQESGPGLVKPSQTLSLTCTVSGGSISSGGDYWSWIRQLPGKGLEWIGYIYYSGSAYYNPSLKSRGTISIDTSKNQFSLKLTSVTAADTAVYFCVKLRFLEWFLGGWFGPWGQGTLVTVSS
VL: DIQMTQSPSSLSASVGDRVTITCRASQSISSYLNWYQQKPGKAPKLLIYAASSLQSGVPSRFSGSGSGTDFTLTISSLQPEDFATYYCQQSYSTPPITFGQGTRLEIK
notes: human IgG4 Fc

Target: T1, full length human LEPR (amino acids …)
Assay: cell-based or functional assay

% activation; IMR-32/LEPR with 200 pM human Leptin [%]	% activation; IMR-32/LEPR without human Leptin [%]	EC50 (M); IMR-32/LEPR with 200 pM human Leptin [M]	EC50 (M); IMR-32/LEPR without human Leptin (STAT3-Luc reporter) [M]	Binder
76	5	2.02e-11	1.49e-09	B1
68	6	3.42e-11	3.73e-10	B2
87	5	5.23e-10	1.53e-10	B3
88	68	5.19e-11	6.19e-11	B4
66	13	5.23e-11	2.12e-10	B5
88	65	7.37e-11	8.62e-11	B6
76	66	2.57e-10	2.07e-10	B7
76	68	1.91e-10	1.87e-10	B8
97	5	4.1e-10	1.19e-08	B9

Target: mouse LEPR extracellular domain expressed with a C-terminal myc-myc-hexahistidine tag (mLEPR.mmh) (mouse, UniProt P48356 22-839)
Assay: SPR, captured mAb, 25C and 37C
Procedure: (§1) Equilibrium dissociation constants (KD values) for LEPR binding to purified anti-LEPR monoclonal antibodies were determined using a real-time surface plasmon resonance biosensor using a Biacore 4000 instrument. All binding studies were performed in 10 mM HEPES, 150 mM NaCl, 3 mM EDTA, and 0.05% v/v Surfactant Tween-20, pH 7.4 (HBS-ET) running buffer at 25° C. and 37° C. The Biacore sensor surface was first derivatized by amine coupling with a monoclonal mouse anti-human Fc antibody (GE, # BR-1008-39) to capture anti-LEPR monoclonal antibodies. […] Kinetic association (kₐ) and dissociation (kd) rate constants were determined by fitting the real-time binding sensorgrams to a 1:1 binding model with mass transport limitation using Scrubber 2.0c curve-fitting software. Binding dissociation equilibrium constants (KD) and dissociative half-lives (t½) were calculated from the kinetic rate constants as: […]

Sequence of mouse LEPR extracellular domain expressed with a C-terminal myc-myc-hexahistidine tag (mLEPR.mmh) (P48356 other isoform, or with tags, fused parts or gaps): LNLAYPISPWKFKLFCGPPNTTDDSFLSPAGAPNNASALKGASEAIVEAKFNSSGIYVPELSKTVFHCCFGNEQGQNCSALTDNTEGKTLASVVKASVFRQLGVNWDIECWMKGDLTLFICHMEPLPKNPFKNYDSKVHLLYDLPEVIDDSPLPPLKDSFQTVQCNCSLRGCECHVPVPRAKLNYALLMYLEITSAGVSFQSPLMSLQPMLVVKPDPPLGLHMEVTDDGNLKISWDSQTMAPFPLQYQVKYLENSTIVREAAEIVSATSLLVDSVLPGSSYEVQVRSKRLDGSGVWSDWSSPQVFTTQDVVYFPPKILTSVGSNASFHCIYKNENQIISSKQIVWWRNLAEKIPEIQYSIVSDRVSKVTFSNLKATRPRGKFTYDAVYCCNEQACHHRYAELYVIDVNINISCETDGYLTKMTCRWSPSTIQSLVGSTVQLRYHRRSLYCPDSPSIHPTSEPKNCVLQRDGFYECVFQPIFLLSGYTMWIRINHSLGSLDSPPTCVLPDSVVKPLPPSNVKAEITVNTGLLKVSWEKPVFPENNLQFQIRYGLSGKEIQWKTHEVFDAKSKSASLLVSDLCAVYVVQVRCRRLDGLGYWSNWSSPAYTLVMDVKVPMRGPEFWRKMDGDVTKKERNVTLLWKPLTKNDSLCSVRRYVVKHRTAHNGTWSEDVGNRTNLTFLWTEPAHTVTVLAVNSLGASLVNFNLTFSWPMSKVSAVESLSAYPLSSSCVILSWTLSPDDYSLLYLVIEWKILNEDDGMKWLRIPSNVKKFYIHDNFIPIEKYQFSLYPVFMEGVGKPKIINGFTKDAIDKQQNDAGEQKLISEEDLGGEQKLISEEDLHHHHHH

binding result	Binder
no binding (tested: 100 nM)	B1
no binding (tested: 100 nM)	B2
no binding (tested: 100 nM)	B3
no binding (tested: 100 nM)	B4
no binding (tested: 100 nM)	B5
no binding (tested: 100 nM)	B6
no binding (tested: 100 nM)	B7
no binding (tested: 100 nM)	B8
no binding (tested: 100 nM)	B9

Target: rat LEPR extracellular domain expressed with a C-terminal myc-myc-hexahistidine tag (rLEPR.mmh) (rat, UniProt Q62959 22-839)
Assay: SPR, captured mAb, 25C and 37C
Procedure: as §1

Sequence of rat LEPR extracellular domain expressed with a C-terminal myc-myc-hexahistidine tag (rLEPR.mmh) (Q62959 other isoform, or with tags, fused parts or gaps): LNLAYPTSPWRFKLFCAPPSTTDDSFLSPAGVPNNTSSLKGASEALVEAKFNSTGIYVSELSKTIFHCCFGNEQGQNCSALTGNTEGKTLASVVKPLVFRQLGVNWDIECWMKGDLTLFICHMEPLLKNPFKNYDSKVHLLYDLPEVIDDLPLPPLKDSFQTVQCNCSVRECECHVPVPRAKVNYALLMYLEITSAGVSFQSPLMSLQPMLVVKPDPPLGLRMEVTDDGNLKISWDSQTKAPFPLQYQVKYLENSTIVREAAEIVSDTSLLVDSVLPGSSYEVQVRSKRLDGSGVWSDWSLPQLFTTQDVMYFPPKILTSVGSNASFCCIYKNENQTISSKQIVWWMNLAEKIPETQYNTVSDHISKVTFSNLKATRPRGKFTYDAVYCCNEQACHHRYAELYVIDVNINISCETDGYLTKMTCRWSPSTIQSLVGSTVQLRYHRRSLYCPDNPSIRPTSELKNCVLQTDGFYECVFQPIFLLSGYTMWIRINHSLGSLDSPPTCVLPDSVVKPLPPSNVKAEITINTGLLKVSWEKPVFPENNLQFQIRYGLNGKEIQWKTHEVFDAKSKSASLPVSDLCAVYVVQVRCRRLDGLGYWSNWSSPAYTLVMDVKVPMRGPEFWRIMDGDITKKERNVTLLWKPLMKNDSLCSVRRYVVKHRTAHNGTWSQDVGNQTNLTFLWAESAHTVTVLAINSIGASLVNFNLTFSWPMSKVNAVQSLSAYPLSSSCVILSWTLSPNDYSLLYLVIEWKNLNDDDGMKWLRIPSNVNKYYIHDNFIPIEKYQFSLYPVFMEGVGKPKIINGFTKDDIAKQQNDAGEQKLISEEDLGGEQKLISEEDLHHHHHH

binding result	Binder
no binding (tested: 100 nM)	B1
no binding (tested: 100 nM)	B2
no binding (tested: 100 nM)	B3
no binding (tested: 100 nM)	B4
no binding (tested: 100 nM)	B5
no binding (tested: 100 nM)	B6
no binding (tested: 100 nM)	B7
no binding (tested: 100 nM)	B8
no binding (tested: 100 nM)	B9

Target: T2, extracellular domain portion of LEPR protein expressed with a C-terminal human Fc tag (hLEPR.hFc) (human)
T2 construct: also called dimeric human LEPR
Assay: blocking ELISA, hLeptin coated
Procedure: These antibody-protein or protein-protein complexes were then incubated for 1.5 hour at room temperature (RT). […] Samples were developed with a TMB solution (BD Biosciences, #555214; substrate A and B mixed at 1:1 ratio as per manufacturer's instructions) to produce a colorimetric reaction and then neutralized with 1M sulfuric acid before measuring absorbance at 450 nm on a Victor X5 plate reader.
Data analysis was performed using a sigmoidal dose-response model within Prism™ software (GraphPad).

500 nM Ab Blocking of 10 nM hLEPR.hFc Binding to hLeptin (% blockade) [%]	Binder
15	B1
-5	B2
16	B3
-7	B4
8	B5
7	B6
6	B7
9	B8
28	B9
